The results in this text go back to patent publication US20240376198A1 (INHIBRX, published 2024).

The target of assay [1] is T1, human NKp46 (human, UniProt O76036 22-304).
T1 construct: also called CD335; NCR1
The assay can be described thus: flow cytometry, HEK293F cells transfected with human NKp46. How it is done:
(§1) Binding of NKp46-binding polypeptides formatted as VHH-Fc fusion proteins was assessed by flow cytometry. An IgG1-Fc lacking a hinge, or a homodimeric Fc (FIG. 1I-1J) was used (the Fc lacking a hinge is annotated as Fc*). HEK293F cells were transiently transfected with a plasmid encoding full-length human NKp46, cynomolgus NKp46, or mouse NKp46, followed by an IRES and GFP. Transfected cells expressing NKp46 and GFP were used to measure binding of the polypeptides. The transfected cells were plated in a 96-well plate at 30,000 cells per well in FACS buffer (PBS, 1% BSA, 0.1% NaN₃, pH 7.4). Untransfected HEK293F cells were used as a NKp46-negative control and plated at 30,000 cells per well in a separate plate. Test polypeptides were then diluted to two times the final concentration of 1000 nM, and a 3-, 4-, or 5-fold, serial dilution was made. A final column was left with only FACS buffer as a secondary-only control. Test article dilutions were added to an equal volume of cells, and assay plates were incubated for 30 minutes at 4° C. After washing twice with 150 μL. of FACS buffer per well, the cells were resuspended in FACS buffer with α-hFc-647 secondary diluted 1:1000-2000. Assay plates were then left to incubate at 4° C. for 20-30 minutes. After one additional wash with 150 μL of FACS buffer, bound antibody was detected by flow cytometry. Flow cytometric detection was performed on an Intellicyt iQue Plus or Accuri iQue. NKp46 transfected cells were gated on as GFP positive, and polypeptide binding was measured as median fluorescence at 647 nm.
(In general: Flow cytometry measures light scatter and fluorescence of single cells or particles in a stream.)

Assay [2] concerns the target T2, cynomolgus NKp46 (cynomolgus monkey, UniProt Q95JB9 22-306).
T2 construct: also called cyno NKp46; cynomolgus monkey NKp46
The experiment in a line: flow cytometry, HEK293F cells transfected with cyno NKp46. The procedure:
as §1

Assay [3] concerns the target T3, mouse NKp46 (mouse, UniProt Q8C567 17-325).
T3 construct: whole, on cells
T3 sequence (looked up): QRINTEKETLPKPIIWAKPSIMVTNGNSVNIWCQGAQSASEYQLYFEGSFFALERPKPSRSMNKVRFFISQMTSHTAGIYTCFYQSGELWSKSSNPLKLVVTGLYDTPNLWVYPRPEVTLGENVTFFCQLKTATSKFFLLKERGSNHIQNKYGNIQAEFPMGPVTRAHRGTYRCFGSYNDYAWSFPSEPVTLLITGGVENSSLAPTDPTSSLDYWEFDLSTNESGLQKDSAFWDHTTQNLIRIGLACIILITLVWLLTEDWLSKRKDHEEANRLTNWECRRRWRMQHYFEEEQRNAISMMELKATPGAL
The experiment in a line: flow cytometry, HEK293F cells transfected with mouse NKp46. How it is done:
as §1

The target of assay [4] is T2, cynomolgus NKp46. The assay can be described thus: flow cytometry, HEK293F cells transfected with cyno NKp46. The procedure:
as §1
The source holds these as a separate data set.

Assay [5] deals with T3, mouse NKp46. The assay can be described thus: flow cytometry, HEK293F cells transfected with mouse NKp46. The procedure:
as §1
This is another data set of the same source.

The target in assay [6] is T1, human NKp46. The assay can be described thus: flow cytometry, HEK293F cells transfected with human NKp46. The procedure: as §1
The source holds these as a separate data set.

Where two headings read alike, the source gives them in different places.

T2 sequence (Q95JB9 22-306 limits assumed): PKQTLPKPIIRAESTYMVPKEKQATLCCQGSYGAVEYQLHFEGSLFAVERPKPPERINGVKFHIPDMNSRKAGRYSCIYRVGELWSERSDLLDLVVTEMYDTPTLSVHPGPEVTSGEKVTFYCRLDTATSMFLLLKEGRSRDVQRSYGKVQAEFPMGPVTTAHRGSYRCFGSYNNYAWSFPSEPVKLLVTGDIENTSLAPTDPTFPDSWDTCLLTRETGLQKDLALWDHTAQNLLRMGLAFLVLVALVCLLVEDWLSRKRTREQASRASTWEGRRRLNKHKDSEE
T1 sequence (O76036 22-304 Q82K): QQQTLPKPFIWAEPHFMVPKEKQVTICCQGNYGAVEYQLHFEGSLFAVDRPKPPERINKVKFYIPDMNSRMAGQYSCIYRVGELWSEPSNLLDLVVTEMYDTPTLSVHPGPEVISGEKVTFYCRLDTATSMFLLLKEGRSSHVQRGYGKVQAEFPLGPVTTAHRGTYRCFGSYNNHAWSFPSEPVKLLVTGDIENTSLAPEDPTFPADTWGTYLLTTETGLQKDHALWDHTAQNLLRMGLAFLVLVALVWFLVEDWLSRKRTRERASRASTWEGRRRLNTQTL

B1: NKp46-hz5D7v1-Fc* (Fc fusion)
chain: EVQLVESGGGEVQPGGSLRLSCAASGRTFASAAMGWFRQAPGKGREFVAAISRSDDTYYAESVKGRFTISRDNAKNTLYLQMSSLRAEDTAVYYCAAVVPTYGNNIYVHSAAYNYWGQGTLVTVKPGGGGPSVFLFPPKPKDTLMISRTPEVTCVVVDVSHEDPEVKFNWYVDGVEVHNAKTKPREEQYNSTYRVVSVLTVLHQDWLNGKEYKCKVSNKALPAPIEKTISKAKGQPREPQVYTLPPSRDELTKNQVSLTCLVKGFYPSDIAVEWESNGQPENNYKTTPPVLDSDGSFFLYSKLTVDKSRWQQGNVFSCSVMHEALHNHYTQKSLSLSPG
notes: VHH-Fc fusion with an IgG1 Fc lacking a hinge (Fc*)
For B1, the entries for the “Bmax (MFI)” value in assay [1], in assay [2] and in assay [3] were 790000 MFI, 67600 MFI and 1.17e+06 MFI, respectively. The Kd in assay [1] turned out to be 0.139 nM; in assay [2], 0.691 nM; in assay [3], 0.468 nM.

B2: NKp46-hz5D7v12-Fc* (Fc fusion)
chain: EVQLVESGGGEVQPGGSLRLSCAASGRTFASAAMGWFRQAPGKEREFVAAISRSDDTYYAESVKGRFTISRDNAKNTVYLQMSSLRAEDTAVYYCAAVVPTYGSNIYVHSAAYNYWGQGTLVTVKPGGGGPSVFLFPPKPKDTLMISRTPEVTCVVVDVSHEDPEVKFNWYVDGVEVHNAKTKPREEQYNSTYRVVSVLTVLHQDWLNGKEYKCKVSNKALPAPIEKTISKAKGQPREPQVYTLPPSRDELTKNQVSLTCLVKGFYPSDIAVEWESNGQPENNYKTTPPVLDSDGSFFLYSKLTVDKSRWQQGNVFSCSVMHEALHNHYTQKSLSLSPG
notes: as for B1
In the case of B2, the figures for the “Bmax (MFI)” value in assay [4], in assay [5] and in assay [6] were 17900 MFI, 49300 MFI and 149000 MFI, respectively. Also, the Kd was found to be 0.455 nM in assay [4], 0.513 nM in assay [5] and 0.14 nM in assay [6].

B3: NKp46-hz5D7v4-Fc* (Fc fusion)
chain: EVQLVESGGGEVQPGGSLRLSCAASGRTFASAAMGWFRQAPGKEREFVAAISRSDDTYYADSVKGRFTISRDNAKNTVYLQMSSLRAEDTAVYYCAAVVPTYGNNIYVHSAAYNYWGQGTLVTVKPGGGGPSVFLFPPKPKDTLMISRTPEVTCVVVDVSHEDPEVKFNWYVDGVEVHNAKTKPREEQYNSTYRVVSVLTVLHQDWLNGKEYKCKVSNKALPAPIEKTISKAKGQPREPQVYTLPPSRDELTKNQVSLTCLVKGFYPSDIAVEWESNGQPENNYKTTPPVLDSDGSFFLYSKLTVDKSRWQQGNVFSCSVMHEALHNHYTQKSLSLSPG
notes: as for B1
B3: the values for the Kd in assay [1], in assay [2] and in assay [3] were 0.189 nM, 0.446 nM and 0.887 nM, respectively.

B4: NKp46-hz5D7v13-Fc* (Fc fusion)
chain: EVQLVESGGGEVQPGGSLRLSCAASGRTFASAAMGWFRQAPGKEREFVAAISRSDDTYYAESVKGRFTISRDNAKNTVYLQMSSLRAEDTAVYYCAAVVPTYGNTIYVHSAAYNYWGQGTLVTVKPGGGGPSVFLFPPKPKDTLMISRTPEVTCVVVDVSHEDPEVKFNWYVDGVEVHNAKTKPREEQYNSTYRVVSVLTVLHQDWLNGKEYKCKVSNKALPAPIEKTISKAKGQPREPQVYTLPPSRDELTKNQVSLTCLVKGFYPSDIAVEWESNGQPENNYKTTPPVLDSDGSFFLYSKLTVDKSRWQQGNVFSCSVMHEALHNHYTQKSLSLSPG
notes: as for B1
As to B4, the “Bmax (MFI)” value in assay [4] worked out at 18800 MFI; in assay [5], 38100 MFI; in assay [6] it was 150000 MFI. Moreover, the Kd is 0.748 nM in assay [4], 0.604 nM in assay [5] and 0.234 nM in assay [6].

B5: NKp46-hz5D7v7-Fc* (Fc fusion)
chain: EVQLVESGGGEVQPGGSLRLSCAASGRTFASAAMGWFRQAPGKEREFVAAISRSGDTYYADSVKGRFTISRDNAKNTVYLQMSSLRAEDTAVYYCAAVVPTYGNNIYVHSAAYNYWGQGTLVTVKPGGGGPSVFLFPPKPKDTLMISRTPEVTCVVVDVSHEDPEVKFNWYVDGVEVHNAKTKPREEQYNSTYRVVSVLTVLHQDWLNGKEYKCKVSNKALPAPIEKTISKAKGQPREPQVYTLPPSRDELTKNQVSLTCLVKGFYPSDIAVEWESNGQPENNYKTTPPVLDSDGSFFLYSKLTVDKSRWQQGNVFSCSVMHEALHNHYTQKSLSLSPG
notes: VHH-Fc fusion with an IgG1 Fc lacking a hinge (Fc*); also called NKp46-bz5D7v7-Fc*
For B5, the figures for the “Bmax (MFI)” value in assay [1], in assay [2] and in assay [3] were 866000 MFI, 64600 MFI and 1.17e+06 MFI, respectively. Besides, the Kd is 0.23 nM in assay [1], 0.703 nM in assay [2] and 0.613 nM in assay [3].

B6: NKp46-hz5D7v2-Fc* (Fc fusion)
chain: EVQLVESGGGEVQPGGSLRLSCAASGRTFASAAMGWFRQAPGKEREFVAAISRSDDTYYAESVKGRFTISRDNAKNTLYLQMSSLRAEDTAVYYCAAVVPTYGNNIYVHSAAYNYWGQGTLVTVKPGGGGPSVFLFPPKPKDTLMISRTPEVTCVVVDVSHEDPEVKFNWYVDGVEVHNAKTKPREEQYNSTYRVVSVLTVLHQDWLNGKEYKCKVSNKALPAPIEKTISKAKGQPREPQVYTLPPSRDELTKNQVSLTCLVKGFYPSDIAVEWESNGQPENNYKTTPPVLDSDGSFFLYSKLTVDKSRWQQGNVFSCSVMHEALHNHYTQKSLSLSPG
notes: VHH-Fc fusion with an IgG1 Fc lacking a hinge (Fc*); also called NKp46-bz5D7v2-Fc*
Regarding B6, the figures for the “Bmax (MFI)” value in assay [1], in assay [2] and in assay [3] were 938000 MFI, 51500 MFI and 1.21e+06 MFI, respectively. The Kd is 0.762 nM in assay [1], 0.902 nM in assay [2] and 0.729 nM in assay [3].

B7: NKp46-hz5D7v8-Fc* (Fc fusion)
chain: EVQLVESGGGEVQPGGSLRLSCAASGRTFASAAMGWFRQAPGKEREFVAAISRSVGDTYYADSVKGRFTISRDNAKNTVYLQMSSLRAEDTAVYYCAAVVPTYGNNIYVHSAAYNYWGQGTLVTVKPGGGGPSVFLFPPKPKDTLMISRTPEVTCVVVDVSHEDPEVKFNWYVDGVEVHNAKTKPREEQYNSTYRVVSVLTVLHQDWLNGKEYKCKVSNKALPAPIEKTISKAKGQPREPQVYTLPPSRDELTKNQVSLTCLVKGFYPSDIAVEWESNGQPENNYKTTPPVLDSDGSFFLYSKLTVDKSRWQQGNVFSCSVMHEALHNHYTQKSLSLSPG
notes: VHH-Fc fusion with an IgG1 Fc lacking a hinge (Fc*); also called NKp46-bz5D7v8-Fc*
For the molecule B7, the figures for the “Bmax (MFI)” value in assay [1], in assay [2] and in assay [3] were 930000 MFI, 53500 MFI and 1.12e+06 MFI, respectively. The Kd in assay [1] was 0.203 nM; in assay [2], 0.526 nM; in assay [3], 0.696 nM.

B8: NKp46-hz5D7v9-Fc* (Fc fusion)
chain: EVQLVESGGGEVQPGGSLRLSCAASGRTFASAAMGWFRQAPGKEREFVAAISRSVDDTYYADSVKGRFTISRDNAKNTVYLQMSSLRAEDTAVYYCAAVVPTYGNNIYVHSAAYNYWGQGTLVTVKPGGGGPSVFLFPPKPKDTLMISRTPEVTCVVVDVSHEDPEVKFNWYVDGVEVHNAKTKPREEQYNSTYRVVSVLTVLHQDWLNGKEYKCKVSNKALPAPIEKTISKAKGQPREPQVYTLPPSRDELTKNQVSLTCLVKGFYPSDIAVEWESNGQPENNYKTTPPVLDSDGSFFLYSKLTVDKSRWQQGNVFSCSVMHEALHNHYTQKSLSLSPG
notes: as for B1
Regarding B8, the “Bmax (MFI)” value in assay [1] is 1.05e+06 MFI; in assay [2] it was 61900 MFI; in assay [3], 1.22e+06 MFI. The Kd in assay [1] turned out to be 0.392 nM; in assay [2], 0.655 nM; in assay [3], 0.941 nM.

B9: NKp46-hz5D7v10-Fc* (Fc fusion)
chain: EVQLVESGGSLRLSCAASGRTFASAAMGWFRQAPGKEREFVAAISRSDDTYYADSVKGRFTISRDNAKNTVYLQMSSLRAEDTAVYYCAAVVPTYGNNIYVHSAAYNYWGQGTLVTVKPGGGGPSVFLFPPKPKDTLMISRTPEVTCVVVDVSHEDPEVKFNWYVDGVEVHNAKTKPREEQYNSTYRVVSVLTVLHQDWLNGKEYKCKVSNKALPAPIEKTISKAKGQPREPQVYTLPPSRDELTKNQVSLTCLVKGFYPSDIAVEWESNGQPENNYKTTPPVLDSDGSFFLYSKLTVDKSRWQQGNVFSCSVMHEALHNHYTQKSLSLSPG
notes: as for B1
As for B9, the results for the Kd in assay [1], in assay [2] and in assay [3] were 0.269 nM, 1.06 nM and 0.82 nM, respectively.

B10: NKp46-5D7-Fc* (Fc fusion)
chain: QVTLRESGASLSLTCAASGRTFASAAMGWFRQAPGEEREFVAAISRSDDTYYADSVKGRFTISRDNAKNTVYLQMNSLKSEDTAVYYCAAVVPTYGNNIYVHSAAYNYWGQGTQVTVKPGGGGGPSVFLFPPKPKDTLMISRTPEVTCVVVDVSHEDPEVKFNWYVDGVEVHNAKTKPREEQYNSTYRVVSVLTVLHQDWLNGKEYKCKVSNKALPAPIEKTISKAKGQPREPQVYTLPPSRDELTKNQVSLTCLVKGFYPSDIAVEWESNGQPENNYKTTPPVLDSDGSFFLYSKLTVDKSRWQQGNVFSCSVMHEALHNHYTQKSLSLSPG
notes: VHH-Fc fusion with an IgG1 Fc lacking a hinge (Fc*); also called 5D7 VHH
For the molecule B10, the “Bmax (MFI)” value in assay [1] was determined as 1.04e+06 MFI; in assay [2] it was 58600 MFI; in assay [3], 1.07e+06 MFI. In addition, the values for the Kd in assay [1], in assay [2] and in assay [3] were 0.172 nM, 0.538 nM and 0.487 nM, respectively.

Broadly, the Kd is the constant that tells how readily two partners part at equilibrium. Low values mean tighter binding, high ones weaker binding.
